Measured values: the supplement of paper PMC10567573

B1: ZNF511 (parent)
chain: YEHHYHTLHGNVCSFCKRAFPSGH

Variants of: B1
Test: protein stability index of a GFP-peptide fusion (GPS, HEK-293T) (PSI 1-6); higher = more stable
Settings: c terminus: a fixed tail appended
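Further: lentivirally expressed fusions sorted by FACS into six bins by GFP to DsRed ratio, PSI derived from sequencing read proportions per bin multiplied by bin number.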

Row | Variant | protein stability index
1 | YEHHYHTLHGNVCSFCKRAFLSGH [P21L] | 2.36
2 | YEHHYHTLHGNVCSFCKRAFPSDH [G23D] | 2.31
3 | YEHHYHTLHGNVCSFCKHAFPSGH [R18H] | 2.29
4 | YEHHYRTLHGNVCSFCKRAFPSGH [H6R] | 1.38
5 | YEHHYHTLHNNVCSFCKRAFPSGH [G10N] | 2.28
6 | YEHHYHTLHGNVCSFCKSAFPSGH [R18S] | 2.26
7 | YEHHYHTLHGNVCSFCKRAFESGH [P21E] | 2.2
8 | YEHHYHPLHGNVCSFCKRAFPSGH [T7P] | 2.2
9 | YEHHYHKLHGNVCSFCKRAFPSGH [T7K] | 1.24
10 | YEHHYHTLHGNVCSVCKRAFPSGH [F15V] | 2
11 | YEHHTHTLHGNVCSFCKRAFPSGH [Y5T] | 3.67
12 | YEHHYHTLHGNVQSFCKRAFPSGH [C13Q] | 2.63
13 | YEHHYHTLHGNVCSFCKRIFPSGH [A19I] | 1.85
14 | YEHHYHTLHGNVCSFCKRQFPSGH [A19Q] | 1.47
15 | YEHHYHTLHGNVCSFCKRAFSSGH [P21S] | 2.48
16 | YEQHYHTLHGNVCSFCKRAFPSGH [H3Q] | 2.19
17 | YEHHYHTLHGNVCSSCKRAFPSGH [F15S] | 2.39
18 | YEHHYHTLHGNVCSFIKRAFPSGH [C16I] | 1.86
19 | YEHHYHTLHGNVCSFCKRAFPSLH [G23L] | 1.63
20 | YEHHYHTLIGNVCSFCKRAFPSGH [H9I] | 2.28
21 | YEHHYHTLHENVCSFCKRAFPSGH [G10E] | 2.39
22 | YEHHYHTLHGNVCCFCKRAFPSGH [S14C] | 2.39
23 | YEHMYHTLHGNVCSFCKRAFPSGH [H4M] | 2.52
24 | YEHHYHTLHGNVCSFCKRAFPSGY [H24Y] | 1.65

Row | Variant | protein stability index
25 | YEHHYHTKHGNVCSFCKRAFPSGH [L8K] | 2.26
26 | YEHHYHTLHGNVCSFCKRLFPSGH [A19L] | 2.36
27 | YEHHYETLHGNVCSFCKRAFPSGH [H6E] | 2.4
28 | YEHHYHHLHGNVCSFCKRAFPSGH [T7H] | 2.46
29 | YEHHYHTLHGNVCSFCKRAFPYGH [S22Y] | 1.7
30 | YEHHYHTLHGNVCSFCKRACPSGH [F20C] | 2.55
31 | YEHHYHTLHGNVCSFNKRAFPSGH [C16N] | 2.12
32 | YIHHYHTLHGNVCSFCKRAFPSGH [E2I] | 2.34
33 | YEHHYHTLHINVCSFCKRAFPSGH [G10I] | 1.83
34 | YEHHYHTLHGNQCSFCKRAFPSGH [V12Q] | 2.66
35 | YEHHNHTLHGNVCSFCKRAFPSGH [Y5N] | 3.01
36 | YEHHYHTLCGNVCSFCKRAFPSGH [H9C] | 2.18
37 | YEHHYHTLSGNVCSFCKRAFPSGH [H9S] | 1.72
38 | YEHHYHTLHGNVCSFCKGAFPSGH [R18G] | 2.27
39 | YEHHYHTLHGPVCSFCKRAFPSGH [N11P] | 2.6
40 | YEHHYHTLHGNVCSRCKRAFPSGH [F15R] | 2.35
41 | YEHHYHTLHGNVCSFCKRAFPQGH [S22Q] | 1.45
42 | YEHHYHTLHGNVCSFCKRAFPSGF [H24F] | 2.5
43 | YEHHYHTLHGNVCSFCKRAFPSFH [G23F] | 1.83
44 | YEHHYHTLHGNVCSFCKRGFPSGH [A19G] | 1.96
45 | YEHHYHTWHGNVCSFCKRAFPSGH [L8W] | 2.3
46 | YEHHYHTTHGNVCSFCKRAFPSGH [L8T] | 2.67
47 | YEYHYHTLHGNVCSFCKRAFPSGH [H3Y] | 2.23
48 | YEHHYHTLHGNVDSFCKRAFPSGH [C13D] | 2.29

Row | Variant | protein stability index
49 | YEHHYHRLHGNVCSFCKRAFPSGH [T7R] | 2.07
50 | YEHHYHTLHGNVCSFCKRAFPSGS [H24S] | 2.46
51 | YEHHYHTLHGTVCSFCKRAFPSGH [N11T] | 2.68
52 | YEHHYHTLHGNVCSFCKRWFPSGH [A19W] | 2.25
53 | YEHHYHTLHGNVCSFVKRAFPSGH [C16V] | 2.14
54 | SEHHYHTLHGNVCSFCKRAFPSGH [Y1S] | 3.29
55 | YEHHEHTLHGNVCSFCKRAFPSGH [Y5E] | 3.85
56 | YEHHYHGLHGNVCSFCKRAFPSGH [T7G] | 2.14
57 | YEHHYHTLHGNVCTFCKRAFPSGH [S14T] | 2.23
58 | PEHHYHTLHGNVCSFCKRAFPSGH [Y1P] | 2.98
59 | YEHHYHTLQGNVCSFCKRAFPSGH [H9Q] | 2.19
60 | YEHHYHTLHGNVCSFCKRAPPSGH [F20P] | 2.34
61 | YEHHYHTLHHNVCSFCKRAFPSGH [G10H] | 1.87
62 | YEHHYHTLHGNVCFFCKRAFPSGH [S14F] | 2.03
63 | YEHHYHTMHGNVCSFCKRAFPSGH [L8M] | 2.12
64 | YERHYHTLHGNVCSFCKRAFPSGH [H3R] | 2.09
65 | YEHHYHTLHGNVCSFCKRAFPMGH [S22M] | 2.89
66 | YEHHYHTLHGNVCSFCKRAFGSGH [P21G] | 2.31
67 | YEHHYHTLHGNVCRFCKRAFPSGH [S14R] | 2.87
68 | YEEHYHTLHGNVCSFCKRAFPSGH [H3E] | 2.9
69 | YEHHYHTLHGNVCSFMKRAFPSGH [C16M] | 2.01
70 | YEHIYHTLHGNVCSFCKRAFPSGH [H4I] | 1.82
71 | YEHHYHTLHGNVCSFCKRAFDSGH [P21D] | 2.88
72 | YEHHYHTLHGNGCSFCKRAFPSGH [V12G] | 1.84

Row | Variant | protein stability index
73 | YEHHYHTLHGYVCSFCKRAFPSGH [N11Y] | 1.99
74 | YEHHYHTLHGNVCSFCKRAFPPGH [S22P] | 2.67
75 | YEHHYHTLHGNVCSFCKEAFPSGH [R18E] | 2.14
76 | YENHYHTLHGNVCSFCKRAFPSGH [H3N] | 2.52
77 | YEHHYHTLHGNVCSFCKRAFPSGQ [H24Q] | 2.08
78 | YEHHYHTLHDNVCSFCKRAFPSGH [G10D] | 2.29
79 | YEHHYHTLKGNVCSFCKRAFPSGH [H9K] | 2.77
80 | YEHHYHTLVGNVCSFCKRAFPSGH [H9V] | 2.57
81 | YEHHYHTLHGNVVSFCKRAFPSGH [C13V] | 1.92
82 | YEHHYHTLHGEVCSFCKRAFPSGH [N11E] | 2.22
83 | YEHHYHTLHGNVCSFCKRAFPSAH [G23A] | 2.1
84 | YEHHYHTLHGNVCSFCQRAFPSGH [K17Q] | 2.41
85 | YEHHYHTLHGNVCQFCKRAFPSGH [S14Q] | 2.88
86 | YEHHYHTLHGNVCSFCKVAFPSGH [R18V] | 1.73
87 | YEHHYHTLHGNVCSFAKRAFPSGH [C16A] | 2.05
88 | YEHHYHELHGNVCSFCKRAFPSGH [T7E] | 2.07
89 | YEHHYHTCHGNVCSFCKRAFPSGH [L8C] | 3.62
90 | YAHHYHTLHGNVCSFCKRAFPSGH [E2A] | 3.31
91 | YEHHYHTLHGNVCSHCKRAFPSGH [F15H] | 2.39
92 | YEHHYHTLHGNVCSFLKRAFPSGH [C16L] | 2.1
93 | YEHHYHTLHGNVCSFCKRAFQSGH [P21Q] | 1.97
94 | YEHHYHTLHPNVCSFCKRAFPSGH [G10P] | 1.95
